The record followed here is the supplement of paper PMC11316812.

± gives the standard deviation of the averaged measurements.

The test system of one data set is hTERT-HMEC. The experiment in a line: percentage of EdU-negative (G0-arrested) nuclei per well, 72 h; higher = more G0 arrest. The note with it: reference: sequence is the full UniProt precursor, the tested protein was the secreted form or ectodomain.
Another data set concerns MCF7. Described as above. The settings on record: reference: sequence is the full UniProt precursor, the tested protein was the secreted form or ectodomain.
The mark [1] stands for this setting: protein concentration 0.0225 µM.
Setting [2] is: protein concentration 0.0119275 µM.
Setting [3] is: protein concentration 0.119275 µM.
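Also: secreted proteins added to cultured cells, EdU pulse at the end, nuclei found by Hoechst imaging, EdU status from nuclear versus surrounding ring intensity ratio, PBS as neutral control.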

With “MQLRNPELHLGCALALRFLALVSWDIPGARALDNGLARTPTMGWLHWERFMCNLDCQEEPDSCISEKLFMEMAELMVSEGWKDAGYEYLCIDDCWMAPQRDSEGRLQADPQRFPHGIRQLANYVHSKGLKLGIYADVGNKTCAGFPGSFGYYDIDAQTFADWGVDLLKFDGCYCDSLENLADGYKHMSLALNRTGRSIVYSCEWPLYMWPFQKPNYTEIRQYCNHWRNFADIDDSWKSIKSILDWTSFNQERIVDVAGPGGWNDPDMLVIGNFGLSWNQQVTQMALWAIMAAPLFMSNDLRHISPQAKALLQDKDVIAINQDPLGKQGYQLRQGDNFEVWERPLSGLAWAVAMINRQEIGGPRSYTIAVASLGKGVACNPACFITQLLPVKRKLGFYEWTSRLRSHINPTGTVLLQLENTMQMSLKDLL”, the “percentage of EdU-negative” value in the data set on hTERT-HMEC (protein concentration 0.021 µM) turned out to be 5.25 ± 0.8%; with hTERT-HMEC (protein concentration 0.21 µM) it was 4.6 ± 0.74%; in the data set on MCF7 (protein concentration 0.021 µM), 24.8 ± 0.73%; in the data set on MCF7 (protein concentration 0.21 µM), 24.3 ± 0.28%.
“MQLTRCCFVFLVQGSLYLVICGQDDGPPGSEDPERDDHEGQPRPRVPRKRGHISPKSRPMANSTLLGLLAPPGEAWGILGQPPNRPNHSPPPSAKVKKIFGWGDFYSNIKTVALNLLVTGKIVDHGNGTFSVHFQHNATGQGNISISLVPPSKAVEFHQEQQIFIEAKASKIFNCRMEWEKVERGRRTSLCTHDPAKICSRDHAQSSATWSCSQPFKVVCVYIAFYSTDYRLVQKVCPDYNYHSDTPYYPSG”: the “percentage of EdU-negative” value in the data set with hTERT-HMEC (setting [1]) was 6.5 ± 0.97%; with hTERT-HMEC (protein concentration 0.225 µM) it was 6.09 ± 1.7%; in the data set with MCF7 (setting [1]), 28.1 ± 0.43%; with MCF7 (protein concentration 0.225 µM), 31.8 ± 2.5%.
Turning to “MQMPAMMSLLLVSVGLMEALQAQSHPITRRDLFSQEIQLDMALASFDDQYAGCAAAMTAALPDLNHTEFQANQVYADSWTLASSQWQERQARWPEWSLSPTRPSPPPLGFRDEHGVALLAYTANSPLHKEFNAAVREAGRSRAHYLHHFSFKTLHFLLTEALQLLGSGQRPPRCHQVFRGVHGLRFRPAGPRATVRLGGFASASLKHVAAQQFGEDTFFGIWTCLGAPIKGYSFFPGEEEVLIPPFETFQVINASRLAQGPARIYLRALGKHSTYNCEYIKDKKCKSGPCHLDNSAMGQSPLSAVWSLLLLLWFLVVRAFPDGPGLL”, the “percentage of EdU-negative” value in the data set on hTERT-HMEC (setting [1]) worked out at 5.126 ± 0.0053%; with hTERT-HMEC (protein concentration 0.225 µM), 6.16 ± 2.3%; with MCF7 (setting [1]), 23.7 ± 1.5%; in the data set with MCF7 (protein concentration 0.225 µM), 25 ± 0.33%.
As for “MQPLWLCWALWVLPLASPGAALTGEQLLGSLLRQLQLKEVPTLDRADMEELVIPTHVRAQYVALLQRSHGDRSRGKRFSQSFREVAGRFLALEASTHLLVFGMEQRLPPNSELVQAVLRLFQEPVPKAALHRHGRLSPRSARARVTVEWLRVRDDGSNRTSLIDSRLVSVHESGWKAFDVTEAVNFWQQLSRPRQPLLLQVSVQREHLGPLASGAHKLVRFASQGAPAGLGEPQLELHTLDLGDYGAQGDCDPEAPMTEGTRCCRQEMYIDLQGMKWAENWVLEPPGFLAYECVGTCRQPPEALAFKWPFLGPRQCIASETDSLPMIVSIKEGGRTRPQVVSLPNMRVQKCSCASDGALVPRRLQP”, the “percentage of EdU-negative” value in the data set with hTERT-HMEC (setting [2]) stood at 5.05 ± 0.39%; with hTERT-HMEC (setting [3]) it was 5.49 ± 0.4%; in the data set with MCF7 (setting [2]), 25.8 ± 0.59%; with MCF7 (setting [3]), 26.51 ± 0.11%.
“MQPPRERLVVTGRAGWMGMGRGAGRSALGFWPTLAFLLCSFPAATSPCKILKCNSEFWSATSGSHAPASDDTPEFCAALRSYALCTRRTARTCRGDLAYHSAVHGIEDLMSQHNCSKDGPTSQPRLRTLPPAGDSQERSDSPEICHYEKSFHKHSATPNYTHCGLFGDPHLRTFTDRFQTCKVQGAWPLIDNNYLNVQVTNTPVLPGSAATATSKLTIIFKNFQECVDQKVYQAEMDELPAAFVDGSKNGGDKHGANSLKITEKVSGQHVEIQAKYIGTTIVVRQVGRYLTFAVRMPEEVVNAVEDWDSQGLYLCLRGCPLNQQIDFQAFHTNAEGTGARRLAAASPAPTAPETFPYETAVAKCKEKLPVEDLYYQACVFDLLTTGDVNFTLAAYYALEDVKMLHSNKDKLHLYERTRDLPGRAAAGLPLAPRPLLGALVPLLALLPVFC [Q96B86]”: the “percentage of EdU-negative” value is 5.15 ± 0.82% in the data set on hTERT-HMEC (setting [1]), 6.53 ± 1.7% with hTERT-HMEC (protein concentration 0.225 µM), 25.3 ± 1.1% with MCF7 (setting [1]) and 26.4 ± 2% in the data set with MCF7 (protein concentration 0.225 µM).
For “MQPRRQRLPAPWSGPRGPRPTAPLLALLLLLAPVAAPAGSGDPDDPGQPQDAGVPRRLLQQAARAALHFFNFRSGSPSALRVLAEVQEGRAWINPKEGCKVHVVFSTERYNPESLLQEGEGRLGKCSARVFFKNQKPRPTINVTCTRLIEKKKRQQEDYLLYKQMKQLKNPLEIVSIPDNHGHIDPSLRLIWDLAFLGSSYVMWEMTTQVSHYYLAQLTSVRQWKTNDDTIDFDYTVLLHELSTQEIIPCRIHLVWYPGKPLKVKYHCQELQTPEEASGTEEGSAVVPTELSNF”, the “percentage of EdU-negative” value in the data set with hTERT-HMEC (setting [1]) worked out at 5.08 ± 0.6%; with hTERT-HMEC (protein concentration 0.225 µM), 4.8 ± 0.36%; in the data set on MCF7 (setting [1]) it was 24.2 ± 1.8%; in the data set with MCF7 (protein concentration 0.225 µM), 28 ± 0.37%.
Taken in the same sequence, the figures for “MQPRTPLVLCVLLSQVLLLTSAEDLDCTPGFQQKVFHINQPAEFIEDQSILNLTFSDCKGNDKLRYEVSSPYFKVNSDGGLVALRNITAVGKTLFVHARTPHAEDMAELVIVGGKDIQGSLQDIFKFARTSPVPRQKRSIVVSPILIPENQRQPFPRDVGKVVDSDRPERSKFRLTGKGVDQEPKGIFRINENTGSVSVTRTLDREVIAVYQLFVETTDVNGKTLEGPVPLEVIVIDQNDNRPIFREGPYIGHVMEGSPTGTTVMRMTAFDADDPATDNALLRYNIRQQTPDKPSPNMFYIDPEKGDIVTVVSPALLDRETLENPKYELIIEAQDMAGLDVGLTGTATATIMIDDKNDHSPKFTKKEFQATVEEGAVGVIVNLTVEDKDDPTTGAWRAAYTIINGNPGQSFEIHTNPQTNEGMLSVVKPLDYEISAFHTLLIKVENEDPLVPDVSYGPSSTATVHITVLDVNEGPVFYPDPMMVTRQEDLSVGSVLLTVNATDPDSLQHQTIRYSVYKDPAGWLNINPINGTVDTTAVLDRESPFVDNSVYTALFLAIDSGNPPATGTGTLLITLEDVNDNAPFIYPTVAEVCDDAKNLSVVILGASDKDLHPNTDPFKFEIHKQAVPDKVWKISKINNTHALVSLLQNLNKANYNLPIMVTDSGKPPMTNITDLRVQVCSCRNSKVDCNAAGALRFSLPSVLLLSLFSLACL” were 4.14 ± 0.25%, 9.2557 ± 0.0081%, 24.7 ± 1.2% and 27.1 ± 0.61%.
